Results reported in US20110130444.

Legend:
Experiment in all cases: cell_activity
[1] = system: Tol2 transposase; settings: HEK293 transposition; 3.3 CHO, 5.4 HeLa, 4.1 H1299
[2] = system: piggyBac transposase; settings: HEK293 transposition; 9.8 CHO, 14.5 HeLa, 5.7 H1299; excision PCR positive
[3] = system: Sleeping Beauty SB11 transposase; settings: HEK293 transposition; 2.9 CHO, 2.7 HeLa, 1.0 (inactive) H1299; excision PCR positive

Tol2 terminal repeat donor plasmid
activity (fold over control) [1]: 93.9

TGATTATCTTTCTAGGG (double strand) [piggyBac terminal repeat donor (printed repeat end)]
activity (fold over control) [2]: 115

Sleeping Beauty terminal repeat donor plasmid
activity (fold over control) [3]: 8.1
